B1: GpH7-A5/GpH7-B3 variant D265_04F/GpL16-k0 (antibody, human IgG1, kappa)
heavy 1: not shown
heavy 2: not shown
light: DIVMTQSPLSLPVTPGEPASISCQASESLVHSNRNTYLHWYLQKPGQSPQLLIYKVSNRFSGVPDRFSGSGSGTDFTLKISRVEAEDVGVYYCSQNTHVPPTFGQGTKVEIERTVAAPSVFIFPPSDEQLKSGTASVVCLLNNFYPREAKVQWKVDNALQSGNSQESVTEQDSKDSTYSLSSTLTLSKADYEKHKVYACEVTHQGLSSPVTKSFNRGEC
notes: Heterodimerized anti-glypican-3 IgG1; substitution in only one H chain (the GpH7-B3 chain); also called He Ab
B2: GpH7-A5/GpH7-B3 variant E269_01G/GpL16-k0 (antibody, human IgG1, kappa)
heavy 1: not shown
heavy 2: not shown
light: B1 light
notes: as for B1
B3: GpH7-A5/GpH7-B3 variant D265_16H/GpL16-k0 (antibody, human IgG1, kappa)
heavy 1: not shown
heavy 2: not shown
light: B1 light
notes: as for B1
B4: GpH7-A5/GpH7-B3 variant H268_04F/GpL16-k0 (antibody, human IgG1, kappa)
heavy 1: not shown
heavy 2: not shown
light: B1 light
notes: as for B1
B5: GpH7-A5/GpH7-B3 variant D265_07I/GpL16-k0 (antibody, human IgG1, kappa)
heavy 1: not shown
heavy 2: not shown
light: B1 light
notes: as for B1
B6: GpH7-A5/GpH7-B3 variant H268_08L/GpL16-k0 (antibody, human IgG1, kappa)
heavy 1: not shown
heavy 2: not shown
light: B1 light
notes: as for B1
B7: GpH7-A5/GpH7-B3 variant D265_15Y/GpL16-k0 (antibody, human IgG1, kappa)
heavy 1: not shown
heavy 2: not shown
light: B1 light
notes: as for B1
B8: GpH7-A5/GpH7-B3 variant D265_20W/GpL16-k0 (antibody, human IgG1, kappa)
heavy 1: not shown
heavy 2: not shown
light: B1 light
notes: as for B1
B9: GpH7-A5/GpH7-B3 variant H268_06M/GpL16-k0 (antibody, human IgG1, kappa)
heavy 1: not shown
heavy 2: not shown
light: B1 light
notes: as for B1
B10: GpH7-A5/GpH7-B3 variant D265_06M/GpL16-k0 (antibody, human IgG1, kappa)
heavy 1: not shown
heavy 2: not shown
light: B1 light
notes: as for B1
B11: GpH7-A5/GpH7-B3 variant D265_18N/GpL16-k0 (antibody, human IgG1, kappa)
heavy 1: not shown
heavy 2: not shown
light: B1 light
notes: as for B1
B12: GpH7-A5/GpH7-B3 variant V266_05P/GpL16-k0 (antibody, human IgG1, kappa)
heavy 1: not shown
heavy 2: not shown
light: B1 light
notes: as for B1
B13: GpH7-A5/GpH7-B3 variant D265_13S/GpL16-k0 (antibody, human IgG1, kappa)
heavy 1: not shown
heavy 2: not shown
light: B1 light
notes: as for B1
B14: GpH7-A5/GpH7-B3 variant D265_14T/GpL16-k0 (antibody, human IgG1, kappa)
heavy 1: not shown
heavy 2: not shown
light: B1 light
notes: as for B1

Biological target: T1, FcγRIIa H (human, UniProt P12318 34-217)
T1 construct: extracellular domain; also called FcgRIIa H type; 2aH
T1 sequence (looked up): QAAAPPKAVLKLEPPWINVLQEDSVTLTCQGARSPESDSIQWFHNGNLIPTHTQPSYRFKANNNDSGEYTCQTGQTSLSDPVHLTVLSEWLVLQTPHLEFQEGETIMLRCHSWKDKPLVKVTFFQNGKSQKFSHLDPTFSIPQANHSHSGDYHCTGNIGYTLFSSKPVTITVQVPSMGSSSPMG
Assay: ratio of He/Con_2aH to He/Con_2b (relative SPR binding to FcγRIIa H over that of the same antibody to FcγRIIb)

Binder	He_2aH/2b (IIaH/IIb)
B1	1.28
B2	1.39
B3	1.27
B4	1.24
B5	2.35
B6	1.25
B7	6.07
B8	2.86
B9	1.29
B10	1.35
B11	2.01
B12	1.91
B13	1.75
B14	1.5

Biological target: T1, FcγRIIa H
Assay: SPR (Biacore), antibody captured on antigen-peptide chip, FcγR as analyte; binding relative to GpH7-A5/GpH7-B3/GpL16-k0 = 100

Binder	He/Con_2aH
B1	4.1 % of HeCon Ab
B2	71.5 % of HeCon Ab
B3	48.6 % of HeCon Ab
B4	111 % of HeCon Ab
B5	3.1 % of HeCon Ab
B6	85 % of HeCon Ab
B7	3.7 % of HeCon Ab
B8	3.2 % of HeCon Ab
B9	84.8 % of HeCon Ab
B10	13.5 % of HeCon Ab
B11	12.4 % of HeCon Ab
B12	0.7 % of HeCon Ab
B13	19.8 % of HeCon Ab
B14	24.1 % of HeCon Ab

Biological target: T2, FcγRIIb (human, UniProt P31994 43-217)
T2 construct: extracellular domain; also called FcgRIIb; 2b
T2 sequence (looked up): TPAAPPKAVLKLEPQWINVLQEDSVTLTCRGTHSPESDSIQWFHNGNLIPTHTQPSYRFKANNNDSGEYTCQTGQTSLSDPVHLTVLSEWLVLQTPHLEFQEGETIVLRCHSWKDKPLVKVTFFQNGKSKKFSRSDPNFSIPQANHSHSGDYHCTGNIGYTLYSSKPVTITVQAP
Assay: as above

Binder	He/Con_2b
B1	3.2 % of HeCon Ab
B2	51.5 % of HeCon Ab
B3	38.3 % of HeCon Ab
B4	89.6 % of HeCon Ab
B5	1.3 % of HeCon Ab
B6	67.8 % of HeCon Ab
B7	0.6 % of HeCon Ab
B8	1.1 % of HeCon Ab
B9	65.7 % of HeCon Ab
B10	10 % of HeCon Ab
B11	6.1 % of HeCon Ab
B12	0.4 % of HeCon Ab
B13	11.3 % of HeCon Ab
B14	16 % of HeCon Ab
